# The DeepSol protein solubility set
# Assay: soluble on expression in E. coli; label from the status in PepcDB or PDB records
row,Sequence,soluble on expression in E. coli
1,MIEFTALDDLSLLRESVSLECKLAQGRDGKGALPDDFWPTYSAMANTDGGIVILGVRERKGQFEVAGIENPDKLRTELFNHLNNRQKVSVNLLRDEDVRAWPVEGKTLLVVEIPRARRQQRPVYLRGNPLGGHTYRRLHEGDRPLPDEDVKRMLAEQVEDSRDERILPGYGLDDLHLESLRAYRQLFANRDPSHPWNALADQAFLRQIGGWRQHRETGEAGLTLAGLLMFGQWSSITEAVPLCFLDYQERPADYATTVQWLDRIVPDGTWSGNVFDFYRRVVGKLTADIKVPFVLKGDIRQDDTPTHKALREALVNTLVHADYTGRISVLVVKEPAGFVLRNPGGLRVPAQQALQGGMSDCRNRTMQQMFLMIGLGERAGSGMSRIVHGWRDLGHELHLRESYEPHEHSVLEMFWAKGRGATLASESSEESSEESSEETGKKILHLLREEPSLTASALARRLQLTPRAIEKQLAKLKAQKRLRRIGPNKGGHWEVGELEHHHHHH,soluble
2,MKKKLLAGAITLLSVATLAACSKGSEGADLISMKGDVITEHQFYEQVKSNPSAQQVLLNMTIQKVFEKQYGSELDDKEVDDTIAEEKKQYGENYQRVLSQAGMTLETRKAQIRTSKLVELAVKKVAEAELTDEAYKKAFDEYTPDVTAQIIRLNNEDKAKEVLEKAKAEGADFAQLAKDNSTDEKTKENGGEITFDSASTEVPEQVKKAAFALDVDGVSDVITATGTQAYSSQYYIVKLTKKTEKSSNIDDYKEKLKTVILTQKQNDSTFVQSIIGKELQAANIKVKDQAFQNIFTQYIGGGDSSSSSSTSNE,soluble
3,MGSDKIHHHHHHMKLLMLCREPRLYSCQRLKESAEDNGHQIDILDPNRCLLKLSKNAPHFELYYQVNSKSEPYLLPDYDAIIPRFGSTSTRMGCAVLRHFRTKNIFCLNDDVAFLKARDKWLSLQLLTEQGIAVPNSALSGAEFSATQAILQIQSPTILKTLHGSQGIGVILAENRKSAVSIMETLTQADVPLLMQDFIQEAQGTDIRCFVIGDKVVATMQRIGQEDEFRANFHRGGSAEKIQLTEQEKVLALKATKCLGLDVAGVDLIRSKQGLLVLEVNASPGLEMIEKTSGIDIALQMIVHIEKQFKR,not soluble
4,GHMKIVLKIFHAGSLSVPFEEYEKMFEKEHPNVDVEREPAGSVACVRKIIDLGKKADILASADYSLIPQMMMPKYADWYVMFARNEIVLAYTDKSKYKDEINSTNWYKILQRPDVKIGFSNPNDDPCGYRTQMVLQLAELYYKDPTIYDNLVLKHSNIKVEENNGTYLILVPKELDVDTNKLFVRSKETDLLAPLEAGAFDYLFIYKSVANQHHLKYIELPKEINLGYYEYADTYKKVALKIIAKNKTINAKPIVYGMTVPTNAPHKKEAIEFVKFVLGHPEVLENNGQPAI,soluble
5,MKRSIKHIYLLSDATGETVERVVRAALSQFRDVEARFHRVTRIRSREDVIWALEEVLREPGMVVYTLVDTELAQLLRDEAEAHGLDAIDLISPLLFKLSDFFGEAPQKEPGLLHQINSEYHKRVDAVDFTVKHDDGQDPRGLAKADFILVGVSRSSKTPLSMYLAHKGYKVANVPIVKGIDPPPELYKVDQKRVVGLIIDAERLVQIRTARLRNLGQMPKGSYADYERIEEELEFCRRLYRRNPQWLVIDVTKKSVEESAAEIIQKLAGLEHHHHHH,not soluble
6,MSGRPFLLIHTFKDISKFREGDRDYSDIEVRYNIPWRLRIFKKEGFLGLKLYCEKEECIETKKWTFKTKFTMKLVAVDLPSSQSDFNNSFLLKHTFNNISKFVERDSDYSDAEDHYNIAWKIRILKYEECLGIYLDCQKEIYEGRKWSIKCEFKSSLISASGKFYSVQYTDVFDNRDSSMGSSTFISWIDMEKEYVTNDDCIDVTIHAKIISITDEPCEMKTFALSHTIKNMSSIREGEDYDTDTQYRFNIPWSLKILNRNEFSGLFIRCEKQLCKSRKWSIETEYQLKIVSPNGRSELFGGTYVFDNPNIYGWHIIRWSSLEDRYIVNDTLTVEAQVTIVKMTGIEDETPIEKPSGIVIPVGNQEFSLERWMEMAFDH,not soluble
7,SAAGSEATTPVIVAAGAGGEEGEHVKPFKPEKAKEIIMSLQQPAIFCNMVFDWPARHWNAKYLSQVLHGKQIRFRMGMKSMSTVPQFETTCNYVEATLEEFLTWNCDQSSISGPFRDYDHSKFWAYADYKYFVSLFEDKTDLFQDVKWSDFGFPGRNGQESTLWIGSLGAHTPCHLDSYGCNLVFQVQGRLECNGMIIAPGPQAILLPQPLKYLGLQETMASLSS,soluble
8,MCGLLGMLSSTGQASKYAAAIESALPCMHHRGPDEAGTWHDDHAVFGFNRLSIIDLEHSHQPLRWGPEGEPDRYAMTFNGEIYNYVELRKKLQDLGYTFNTSGDGETIAVGFHHWGADVVLHLRGMFGIAIWDTKEQRLFLARDQFGIKPLYFATTEAGTVFASEKKCILGMADAIGLDLGLDQRAIEHYIDLQYVPEPESLHQHIRRLESGCFAFVSVGGNVEQTRYFRPQFPAQEF,not soluble
9,MVHVKDVLADQLLANANDPSWYMPFSDAVKDLSEREAFWKPNEECNSIAEIVQHLLYWNSTWQTRYKESHVNAVPAIGDNNKSFMLSDNQTFDELREKLLEKLLQWQTLINEEKVESDVVGFPVSAKWWEVLANVTTHNAYHIGQIIYIRKLQQSFDNK,not soluble
10,MSFNPTRDDFEALLNDSMGGRDFAEGTVVKGKVVGIEKDFAIIDVGLKTEGRVQLKEFGVDENGKATVKAGDTVEVFLERLENAMGEAVISREKAKREEAWTRLEGVYARNEPVMGAIVGRVKGGFTVDLGGASAFLPGSQVDIRPVRDVGPLMGKEQPFAILKMDRPRGNIVVSRRAILEEARAEQRTELVSQLQEGEIREGVVKNITDYGAFVDLGGIDGLLHVTDMSWKRVNHPSQVLAVGDTVKVQIVKINPDTQRISLGMKQLQSDPWDGVEAKYPVGAKFTGRITNITDYGAFVELEAGVEGLVHVSEMSWTKKNVHPGKIVSTSQEVDVVVLDVDPSKRRVSLGLKQALANPWEAFLEAHPVGSTVEGEVKNATEFGLFVGLDNDIDGMVHLSDIDWSVPGEEAMARYKKGDMVKAKVLDVDVEKERISLGIKQLAGDPMSGDTYRKNQTVTVTVTEVTSGGIEVRFGEDDAPMTAFIRKSDLSRDRQEQRPERFAVGDRVDAQITNVDKAARRVSLSIKSLEMAEEKEAIEQFGSSDSGASLGDILGAALRERASKD,soluble
11,MSANGCCCCGGVDSREQKLNEIIEKYKNTKGALVPVLHEAQEVYGYLPLEVQKKIAEGLNIPLAEVYGVVTFYTQFSLNPKGKYKIQVCMGTACYVKGSGAILEKLKEKLEIDVGECTSDGKFSLEACRCIGACGLAPVIMINDDVYGRLVPDDIEGIIEKYKKE,soluble
12,MGSSHHHHHHSQDPMDYFNIKQNYYTGNFVQCLQEIEKFSKVTDNTLLFYKAKTLLALGQYQSQDPTSKLGKVLDLYVQFLDTKNIEELENLLKDKQNSPYELYLLATAQAILGDLDKSLETCVEGIDNDEAEGTTELLLLAIEVALLNNNVSTASTIFDNYTNAIEDTVSGDNEMILNLAESYIKFATNKETATSNFYYYEELSQTFPTWKTQLGLLNLHLQQRNIAEAQGIVELLLSDYYSVEQKENAVLYKPTFLANQITLALMQGLDTEDLTNQLVKLDHEHAFIKHHQEIDAKFDELVRKYDTSN,soluble
13,MSLRTYLPGESEEVLSEGWTLTLTPADACETPSDIPASLESLHVSVPGTVGQALEAAGKFDRLAPVALNDRDAWYRLTMISDARERAILRFDGLSTIAEIFFNGELIAASQSMFERLEVPVQMTGADELSICFRALAPRLEKPGPRARWRPQMMNTQGLRLIRTTALGYMPGWCPEIHSAGPWRPISLIKQDGVLCTLRSSLDDTGTGKVSIVLQANRDIQSARLICAGYSINLSKAEDGKLLGELIIPGVEIWWPHTHGRPALHEVVLELDGNQHRLGRTGFRQVEIDHGEDGNGFGLKVNGQPVFCRGAVWTTADIVRLPGTRPDYEPWLKKAAEAGMNMIRVGGTMAYETPEFFALCDELGIMVWQDAMLANFDYPAKDDGLRQHIVMEIEQLLESTALSPSFAIFCGGSEMYQQGAMLGLPEQIWKGTLTEEILPELVAEKRPDAAYVANSPSGGALPFFPNAGVGHYYGVGAYCRPLEDARRADLRFAAECLAFANIPEQETLDRYLPGVAVHDPRWKARTPRDRGASWDFEDVRDHYLKLLYEAEPDVLRREDGALYLDMSRAATAEVMEATFAEWRRSGSSCQGALVWTLQDLVPGAGWGIIDAAGRPKSVWHALKRAFRPVQVSLSDEGTNGLDIHILNDTGDSLNTMLELTCLREGLQPVVHAKRPLALLPRESQTIAATDLFGAFFDTTYAYRFGPPSHDVTIARLRDIATGHVIADAFHFPLGRKKALHAANLQVAISETNGHWSLEIGTDRLAQSVHITAEGYRACESWFHLGPGEARKIGLLPETATTEAPPSGEVVSLGSSRRFSEGHHHHHH,not soluble
14,MAKAVGIDLGTTNSVIAVLEGGKPVVLENAEGERVTPSVVAFRDGETLVGRMAKRQAVLNPEGTIFEIKRFIGRRFEEVQEEAKRVPYKVVPGPDGGVRVEVKGKLYTPEEISAMILRKLVEDASKKLGEKITKAVITVPAYFNNAQREATANAGRIAGLEVLRIINEPTAAALAYGLDKKGNETVLVFDLGGGTFDVTILEIGEGVFEVKATSGDTHLGGSDMDHAIVNWLAEEFKKEHGVDLKADRQALQRLIEAAEKAKIELSSTLETTISLPFIALDPASKTPLHLEKKLTRAKFEELIQPLLKRLRGPVEQALKDAGLTPAQIDEVILVGGATRVPAVQQVVRELLGKEPNRSVNPDEVVAMGAAIQAGVLMGEVRDVVLLDVTPLSLGVETKGGVMTVLIPRNTTIPTRKCEIFTTAEHNQTAVKSIVFQGKRPMAQDNKSLGRFRLEGIPPMPAGVPQIEVCFDIDANGILHVTAKERSTGREASITIQNTTTLSEEEIQRIIEEAKRHAEEDRRRREHAELKNALDSARVQAERVLQERQGAPEARARLEAAIGKAKELVERDAPDPELKAATEELLKAVEEYEKGAQAASGKGPDDVIDADYKPAD,soluble
15,MSLKSGTMVEKLASAKTIAFDKTGTITQGQLSVDQVQPINAGITAAELVGLAASVEQESSHILARSIVAYARKQDVPLKNITDLAEVSGAGVKAFVDGAEIRVGKKNFVTQESQETEKIDKTTIHISRNGTYLGRITFTDTVRPEAKETMEKLHQLHLQRILMLTGDQESVAETIAAEVGITEVHGECLPQDKLTILKELPKENHPVIMVGDGVNDAPSLAAADVGIAMGAHGATAASETADVVILKDDLSKVSQAVEIAQDTMKIAKEGHHHHHH,soluble
16,MSLTDNKTVPNGAPILYIVPTPIGNLGDITQRALDVLASVDMIAVEDTRHTGKLLAHFNISTKTFALHDHNEQQKAQVLVDKLLSGLSIALVSDAGTPLISDPGYHLVTQCRQAGVKVVPLPGPCAVITALSASGLPSDSFSFEGFLPAKSKARKDKLLEIAKVSRTCIFYESPHRICESLQDMLDVLGGEREVVLARELTKTFETIQGMPLAELITWIAEDDNRKKGEMVLLVHGYRDAGEQQLPDEALRTLTILTKELPLKKAAALVAEIHQLKKNALYKWGLENLGEEGHHHHHH,soluble
17,MKPENKIPVLTRLSDEMTAVVNFQQPGLPPWPADGDIETQRQYYLLERRFWNADAPSMTTRTCAVPTPYGDVTTRLYSPQPTSQATLYYLHGGGFILGNLDTHDRIMRLLARYTGCTVIGIDYSLSPQARYPQAIEETVAVCSYFSQHADEYSLNVEKIGFAGDSAGAMLALASALWLRDKHIRCGNVIAILLWYGLYGLQDSVSRRLFGGAWDGLTREDLDMYEKAYLRNDEDRESPWYCLFNNDLTRDVPPCFIASAEFDPLIDDSRLLHQTLQAHQQPCEYKMYPGTLHAFLHYSRMMTIADDALQDGARFFMARMKTPR,not soluble
18,MPGHTSWDATFLEPAPPLPHPSECGQPCVSGQSQMFQHRTTNAQGPPPNRPMPRPPAGMPMMTSSHEHDYTNDYEDPEEMARSRGEGFSNHLLIKTTPPPQPHPNFNSYEMSMSQQRRSQQHQQPMAPPLSDCWGSGVHDSGVLHKNADGAYYIPSGSCKF,not soluble
